Results reported in PMC10322840.

What was measured:
[1] = biological target: Paracentrotus lividus RAF, 6 MYC tags (Paracentrotus lividus); assay: co-IP; lysates of co-transfected HEK293T cells (200 ul at 0.5 mg/ml); mouse anti-myc 9E10 overnight at 4 °C, Dynabeads Pan mouse IgG 2 h; five washes in 50 mM Tris HCl pH 7.5, 150 mM NaCl, 10% glycerol, 0.2% Triton X100, 1 mM EDTA; blots with rabbit anti-HA and anti-Myc
[2] = biological target: Paracentrotus lividus RAF, 6 MYC tags; assay: co-immunoprecipitation (IP anti-Myc of Pl. RAF, blot quantified); conditions: parent: 1; read off a plot

Chain of Paracentrotus lividus RAF, 6 MYC tags (Paracentrotus lividus) (main, as listed by the source): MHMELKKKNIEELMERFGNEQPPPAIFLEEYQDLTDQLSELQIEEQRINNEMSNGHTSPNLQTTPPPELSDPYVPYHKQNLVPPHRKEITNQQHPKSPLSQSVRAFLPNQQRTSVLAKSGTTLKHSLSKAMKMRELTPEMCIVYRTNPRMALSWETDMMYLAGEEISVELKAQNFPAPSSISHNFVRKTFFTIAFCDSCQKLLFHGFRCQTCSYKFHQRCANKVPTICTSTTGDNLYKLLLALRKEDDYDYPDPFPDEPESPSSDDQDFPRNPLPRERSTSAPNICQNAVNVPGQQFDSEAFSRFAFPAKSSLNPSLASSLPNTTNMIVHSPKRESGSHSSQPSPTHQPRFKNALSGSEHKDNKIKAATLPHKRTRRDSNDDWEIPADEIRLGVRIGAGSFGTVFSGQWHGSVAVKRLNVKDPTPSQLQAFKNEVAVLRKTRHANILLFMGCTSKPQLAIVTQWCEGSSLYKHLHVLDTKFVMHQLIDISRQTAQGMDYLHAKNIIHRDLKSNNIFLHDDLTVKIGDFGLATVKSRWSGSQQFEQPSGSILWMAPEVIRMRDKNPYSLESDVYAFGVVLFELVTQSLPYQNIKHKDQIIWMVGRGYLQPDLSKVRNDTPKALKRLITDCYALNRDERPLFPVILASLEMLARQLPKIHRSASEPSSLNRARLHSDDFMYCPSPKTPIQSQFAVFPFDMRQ

Substance	fold change of RAF co-immunoprecipitated, against wild-type KSR3 [1] [fold]	ratio to parent (arbitrary units) [2]
Paracentrotus lividus KSR3 S361E (natural protein)	1.5	–
Paracentrotus lividus KSR3, wild type, 3HA-tagged S361E; R364H	–	0.46
